# According to patent US20200199241A1 (Chugai, published 2020):
# Residue numbers refer to the chain shown, from its start. Names may count otherwise.
# B1: IgG1-F284 (antibody)
# heavy: QVQLQESGPGLVKPSETLSLTCAVSGHSISHDHAWSWVRQPPGEGLEWIGFISYSGITNYNPSLQGRVTISRDNSKNTLYLQMNSLRAEDTAVYYCARSLARTTAMDYWGEGTLVTVSSASTKGPSVFPLAPSSKSTSGGTAALGCLVKDYFPEPVTVSWNSGALTSGVHTFPAVLQSSGLYSLSSVVTVPSSSLGTQTYICNVNHKPSNTKVDKKVEPKSCDKTHTCPPCPAPELLGGPSVFLFPPKPKDTLYISRTPEVTCVVVDVSHEDPEVKFNWYVDGVEVHNAKTKPREEQYNSTYRVVSVLTPLHQDWLNGKEYKCKVSNKALPAPIEKTISKAKGQPREPQVYTLPPSRDELTKNQVSLTCLVKGFYPSDIAVEWESNGQPENNYKTTPPVLDSDGSFFLYSKLTVDKSRWQQGNVFSCSVYHEALHYHYTQKSLSLSP
# light: not shown
# notes: EU numbering; copies: 2 + 2
# B2: IgG1-F285 (antibody)
# heavy: B1 heavy with Y430F
# light: not shown
# notes: EU numbering; copies: 2 + 2
# B3: IgG1-F286 (antibody)
# heavy: B1 heavy with S241K, E384A
# light: not shown
# notes: EU numbering; copies: 2 + 2
# B4: IgG1-F287 (antibody)
# heavy: B1 heavy with E382A, E384A, Y430F
# light: not shown
# notes: EU numbering; copies: 2 + 2
# B5: IgG1-F288 (antibody)
# heavy: B1 heavy with T258E, P310V, E384A, Y430M
# light: not shown
# notes: EU numbering; copies: 2 + 2
# B6: IgG1-F289 (antibody)
# heavy: B1 heavy with T258E, P310V
# light: not shown
# notes: EU numbering; copies: 2 + 2
# B7: IgG1-F290 (antibody)
# heavy: B1 heavy with T258E, P310V, E384A
# light: not shown
# notes: EU numbering; copies: 2 + 2
# B8: IgG1-F292 (antibody)
# heavy: B1 heavy with S241K, E384A, Y430I
# light: not shown
# notes: EU numbering; copies: 2 + 2
# B9: IgG1-F293 (antibody)
# heavy: B1 heavy with E382A, E384A, Y430I
# light: not shown
# notes: EU numbering; copies: 2 + 2
# B10: IgG1-F294 (antibody)
# heavy: B1 heavy with S241K, Y430F
# light: not shown
# notes: EU numbering; copies: 2 + 2
# B11: IgG1-F295 (antibody)
# heavy: B1 heavy with S241K, P310V, E382A, E384A, Y430F
# light: not shown
# notes: EU numbering; copies: 2 + 2
# B12: IgG1-F296 (antibody)
# heavy: B1 heavy with P310V, Q313A
# light: not shown
# notes: EU numbering; copies: 2 + 2
# B13: IgG1-F297 (antibody)
# heavy: B1 heavy with P310V, D314A
# light: not shown
# notes: EU numbering; copies: 2 + 2
# B14: IgG1-F298 (antibody)
# heavy: B1 heavy with P310V, Q313A, D314A
# light: not shown
# notes: EU numbering; copies: 2 + 2
# B15: IgG1-F299 (antibody)
# heavy: B1 heavy with S241K, Q313A
# light: not shown
# notes: EU numbering; copies: 2 + 2
# B16: IgG1-F300 (antibody)
# heavy: B1 heavy with S241K, D314A
# light: not shown
# notes: EU numbering; copies: 2 + 2
# B17: IgG1-F301 (antibody)
# heavy: B1 heavy with S241K, Q313A, D314A
# light: not shown
# notes: EU numbering; copies: 2 + 2
# B18: IgG1-F302 (antibody)
# heavy: B1 heavy with T258E, T309P, P310V, Y430M
# light: not shown
# notes: EU numbering; copies: 2 + 2
# B19: IgG1-F303 (antibody)
# heavy: B1 heavy with T309P, P310V
# light: not shown
# notes: EU numbering; copies: 2 + 2
# B20: IgG1-F304 (antibody)
# heavy: B1 heavy with Y254W
# light: not shown
# notes: EU numbering; copies: 2 + 2
# B21: IgG1-F305 (antibody)
# heavy: B1 heavy with T258E, E384A, Y430M
# light: not shown
# notes: EU numbering; copies: 2 + 2
# B22: IgG1-F306 (antibody)
# heavy: B1 heavy with Y254W, E384A, Y430M
# light: not shown
# notes: EU numbering; copies: 2 + 2
# B23: IgG1-F307 (antibody)
# heavy: B1 heavy with S241K, Y254W, E384A, Y430M
# light: not shown
# notes: EU numbering; copies: 2 + 2
# B24: IgG1-F308 (antibody)
# heavy: B1 heavy with S241K, Y254W, E384A
# light: not shown
# notes: EU numbering; copies: 2 + 2
# B25: IgG1-F310 (antibody)
# heavy: B1 heavy with S241K, Y254W, E384A, Y430I
# light: not shown
# notes: EU numbering; copies: 2 + 2
# B26: IgG1-F311 (antibody)
# heavy: B1 heavy with S241K, Y254W, Y430F
# light: not shown
# notes: EU numbering; copies: 2 + 2
# B27: IgG1-F312 (antibody)
# heavy: B1 heavy with S241K, Y254W, P310V, E382A, E384A, Y430F
# light: not shown
# notes: EU numbering; copies: 2 + 2
# B28: IgG1-F313 (antibody)
# heavy: B1 heavy with S241K, T309P, P310V
# light: not shown
# notes: EU numbering; copies: 2 + 2
# B29: IgG1-F314 (antibody)
# heavy: B1 heavy with T258E, P310V, Q313A, D314A
# light: not shown
# notes: EU numbering; copies: 2 + 2
# B30: IgG1-F315 (antibody)
# heavy: B1 heavy with S241K, P310V
# light: not shown
# notes: EU numbering; copies: 2 + 2
# B31: IgG1-F316 (antibody)
# heavy: B1 heavy with S241K, D272F, P310V
# light: not shown
# notes: EU numbering; copies: 2 + 2
# B32: IgG1-F317 (antibody)
# heavy: B1 heavy with S241K, D272F
# light: not shown
# notes: EU numbering; copies: 2 + 2
# B33: IgG1-F318 (antibody)
# heavy: B1 heavy with S241K, Y430I
# light: not shown
# notes: EU numbering; copies: 2 + 2
# B34: IgG1-F320 (antibody)
# heavy: B1 heavy with S241K, N327G, E384A, Y430I
# light: not shown
# notes: EU numbering; copies: 2 + 2
# B35: IgG1-F321 (antibody)
# heavy: B1 heavy with S241K, D272F, N327G, Y430M
# light: not shown
# notes: EU numbering; copies: 2 + 2
# B36: IgG1-F322 (antibody)
# heavy: B1 heavy with S241K, D272F, T309P, Y430M
# light: not shown
# notes: EU numbering; copies: 2 + 2
# B37: IgG1-F323 (antibody)
# heavy: B1 heavy with S241K, T258E, D272F, Y430M
# light: not shown
# notes: EU numbering; copies: 2 + 2
# B38: IgG1-F324 (antibody)
# heavy: B1 heavy with S241K, D272F, T309Q, Y430M
# light: not shown
# notes: EU numbering; copies: 2 + 2
# B39: IgG1-F325 (antibody)
# heavy: B1 heavy with S241K, D272F, T309Q, Q313A, Y430M
# light: not shown
# notes: EU numbering; copies: 2 + 2
# B40: IgG1-F326 (antibody)
# heavy: B1 heavy with S241K, D272F, T309Q, P310V, Q313A, Y430M
# light: not shown
# notes: EU numbering; copies: 2 + 2
# B41: IgG1-F328 (antibody)
# heavy: B1 heavy with S241K, D272F, Y430I
# light: not shown
# notes: EU numbering; copies: 2 + 2
# B42: IgG1-F330 (antibody)
# heavy: B1 heavy with S241K, D272F, L311E, Y430M
# light: not shown
# notes: EU numbering; copies: 2 + 2
# B43: IgG1-F331 (antibody)
# heavy: B1 heavy with S241K, D272F, P389E, Y430M
# light: not shown
# notes: EU numbering; copies: 2 + 2
# B44: IgG1-F333 (antibody)
# heavy: B1 heavy with S241K, D272F, T309Q, P310V, L311E, Q313A, Y430M
# light: not shown
# notes: EU numbering; copies: 2 + 2
# B45: IgG1-F334 (antibody)
# heavy: B1 heavy with S241K, D272F, N327G, Y430I
# light: not shown
# notes: EU numbering; copies: 2 + 2
# B46: IgG1-F335 (antibody)
# heavy: B1 heavy with S241K, T258E, D272F, Y430I
# light: not shown
# notes: EU numbering; copies: 2 + 2
# B47: IgG1-F336 (antibody)
# heavy: B1 heavy with S241K, D272F, T309Q, Q313A, Y430I
# light: not shown
# notes: EU numbering; copies: 2 + 2
# B48: IgG1-F337 (antibody)
# heavy: B1 heavy with S241K, D272F, T309Q, P310V, Q313A, Y430I
# light: not shown
# notes: EU numbering; copies: 2 + 2
# B49: IgG1-F338 (antibody)
# heavy: B1 heavy with S241K, D272F, N288E, Y430I
# light: not shown
# notes: EU numbering; copies: 2 + 2
# B50: IgG1-F339 (antibody)
# heavy: B1 heavy with S241K, D272F, L311E, Y430I
# light: not shown
# notes: EU numbering; copies: 2 + 2
# B51: IgG1-F343 (antibody)
# heavy: B1 heavy with S241K, D272F, Y430L
# light: not shown
# notes: EU numbering; copies: 2 + 2
# B52: IgG1-F344 (antibody)
# heavy: B1 heavy with S241K, Y430L
# light: not shown
# notes: EU numbering; copies: 2 + 2
# B53: IgG1-F349 (antibody)
# heavy: B1 heavy with S241K, L311P, Y430L
# light: not shown
# notes: EU numbering; copies: 2 + 2
# B54: IgG1-F350 (antibody)
# heavy: B1 heavy with S241K, L311R, Y430L
# light: not shown
# notes: EU numbering; copies: 2 + 2
# B55: IgG1-F352 (antibody)
# heavy: B1 heavy with S241K, P310V, L311P, Y430L
# light: not shown
# notes: EU numbering; copies: 2 + 2
# B56: IgG1-F353 (antibody)
# heavy: B1 heavy with S241K, P310V, L311R, Y430L
# light: not shown
# notes: EU numbering; copies: 2 + 2
# B57: IgG1-F354 (antibody)
# heavy: B1 heavy with S241K, T309Q, Y430L
# light: not shown
# notes: EU numbering; copies: 2 + 2
# B58: IgG1-F356 (antibody)
# heavy: B1 heavy with S241K, D272F, L311E, P389E, Y430M
# light: not shown
# notes: EU numbering; 'Y308P' as printed, probably V308P; copies: 2 + 2
# B59: IgG1-F358 (antibody)
# heavy: B1 heavy with S241K, T309Q, P310V, Y430M
# light: not shown
# notes: EU numbering; copies: 2 + 2
# B60: IgG1-F359 (antibody)
# heavy: B1 heavy with Y254M, P259V, T309Q, P310V, Y430I
# light: not shown
# notes: EU numbering; copies: 2 + 2
# Target: T1, human FcRn (soluble human FcRn complexed with β2-microglobulin) (human, UniProt P61769 21-119, limits assumed)
# T1 construct: also called hFcRn
# T1 sequence (chain, as listed by the source limits assumed, chain 1 of 2): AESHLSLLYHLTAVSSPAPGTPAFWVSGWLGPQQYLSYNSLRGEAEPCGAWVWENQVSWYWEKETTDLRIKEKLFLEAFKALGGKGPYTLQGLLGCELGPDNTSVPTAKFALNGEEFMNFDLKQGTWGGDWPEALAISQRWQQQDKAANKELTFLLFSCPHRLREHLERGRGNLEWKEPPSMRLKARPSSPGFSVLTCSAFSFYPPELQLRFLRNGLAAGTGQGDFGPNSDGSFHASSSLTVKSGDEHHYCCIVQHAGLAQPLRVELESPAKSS
# T1 sequence (P61769 21-119 limits assumed, chain 2 of 2): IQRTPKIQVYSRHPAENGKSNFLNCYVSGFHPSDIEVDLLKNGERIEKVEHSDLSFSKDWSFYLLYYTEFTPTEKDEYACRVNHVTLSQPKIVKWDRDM
# Test: SPR, pH 7.0;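 note: antibodies captured on a Protein L sensor chip with human FcRn injected as analyte, KD calculated from fitted association and dissociation rate constants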
row,Binder,Kd
1,B1,100 nM
2,B2,99 nM
3,B3,120 nM
4,B4,100 nM
5,B5,190 nM
6,B6,480 nM
7,B7,460 nM
8,B8,23 nM
9,B9,53 nM
10,B10,110 nM
11,B11,680 nM
12,B12,490 nM
13,B13,510 nM
14,B14,480 nM
15,B15,94 nM
16,B16,83 nM
17,B17,72 nM
18,B18,190 nM
19,B19,670 nM
20,B20,16 nM

row,Binder,Kd
1,B21,27 nM
2,B22,36 nM
3,B23,36 nM
4,B24,19 nM
5,B25,94 nM
6,B26,28 nM
7,B27,450 nM
8,B28,650 nM
9,B29,320 nM
10,B30,680 nM
11,B31,700 nM
12,B32,110 nM
13,B33,18 nM
14,B34,20 nM
15,B35,32 nM
16,B36,92 nM
17,B37,27 nM
18,B38,28 nM
19,B39,21 nM
20,B40,75 nM

row,Binder,Kd
1,B41,19 nM
2,B42,36 nM
3,B43,30 nM
4,B44,74 nM
5,B45,19 nM
6,B46,15 nM
7,B47,14 nM
8,B48,56 nM
9,B49,7.7 nM
10,B50,19 nM
11,B51,32 nM
12,B52,30 nM
13,B53,150 nM
14,B54,170 nM
15,B55,600 nM
16,B56,1100 nM
17,B57,28 nM
18,B58,34 nM
19,B59,100 nM
20,B60,420 nM
